For 3 substances, stoichiometry N and Kd results are on record in doi:10.1101/2023.08.11.549911.

The target of test [1] is LRRK2 R1441G, full-length, N-terminal Strep-FLAG (SF) tagged (human) (UniProt Q5S007). Description: native gel or EMSA. A general note: A gel shift assay detects complexes by their altered migration in electrophoresis.
Test [2] concerns the target LRRK2 G2019S, full-length, N-terminal Strep-FLAG (SF) tagged (human) (UniProt Q5S007). Description: native gel or EMSA. The note with it: remark: other sources report otherwise.
Test [3] addresses Leucine-rich repeat kinase 2 (LRRK2), full-length wild type, N-terminal Strep-FLAG (SF) tagged (human) (UniProt Q5S007). Description: mass photometry. The note with it: remark: other sources report otherwise.

As for “LRRK2 R1441G, full-length, N-terminal Strep-FLAG (SF) tagged, Q5S007 1-2527”, the stoichiometry N (commonly a count of units in the complex or per binding partner) in test [1] came out at 2. With “LRRK2 G2019S, full-length, N-terminal Strep-FLAG (SF) tagged, Q5S007 1-2527”, the stoichiometry N in test [2] turned out to be 2. For “Leucine-rich repeat kinase 2 (LRRK2), full-length wild type, N-terminal Strep-FLAG (SF) tagged, Q5S007 1-2527”, the Kd (as a rule, a measure of binding affinity in units of concentration) in test [3] was 200 nM.
